The target in assay [1] is Retromer^mClover (Vps26-Vps29-Vps35, carrying mClover on Vps29) (yeast, UniProt P40335;P38759;P34110). The experiment in a line: coat formation on supported membrane tubes, fluorescence microscopy.
The target in assay [2] is T1, Snx3 (recombinant, without fluorescent tag) (yeast, UniProt Q08826 1-162).
T1 sequence: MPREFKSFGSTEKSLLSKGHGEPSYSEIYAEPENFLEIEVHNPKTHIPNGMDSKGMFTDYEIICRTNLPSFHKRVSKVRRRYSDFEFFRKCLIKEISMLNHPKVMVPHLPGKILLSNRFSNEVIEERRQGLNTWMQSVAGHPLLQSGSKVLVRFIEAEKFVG
The description is as above.

Groups on a side chain read outwards from the residue. No end group written: not given here. Alexa‑547 = not defined here

Retromer^mClover (Vps26-Vps29-Vps35, carrying mClover on Vps29), sequence (P40335 whole entry, chain 1 of 3): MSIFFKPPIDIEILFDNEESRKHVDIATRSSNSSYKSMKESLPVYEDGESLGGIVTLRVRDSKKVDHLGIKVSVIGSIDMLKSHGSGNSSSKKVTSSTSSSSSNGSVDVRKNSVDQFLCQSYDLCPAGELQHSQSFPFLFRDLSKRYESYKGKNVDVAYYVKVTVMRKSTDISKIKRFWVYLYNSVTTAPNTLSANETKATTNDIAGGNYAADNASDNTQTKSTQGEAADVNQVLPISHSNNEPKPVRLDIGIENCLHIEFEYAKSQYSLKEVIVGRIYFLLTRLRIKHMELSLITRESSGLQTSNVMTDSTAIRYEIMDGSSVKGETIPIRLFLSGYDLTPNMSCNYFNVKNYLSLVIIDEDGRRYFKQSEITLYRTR
Retromer^mClover (Vps26-Vps29-Vps35, carrying mClover on Vps29), sequence (P38759 whole entry, chain 2 of 3): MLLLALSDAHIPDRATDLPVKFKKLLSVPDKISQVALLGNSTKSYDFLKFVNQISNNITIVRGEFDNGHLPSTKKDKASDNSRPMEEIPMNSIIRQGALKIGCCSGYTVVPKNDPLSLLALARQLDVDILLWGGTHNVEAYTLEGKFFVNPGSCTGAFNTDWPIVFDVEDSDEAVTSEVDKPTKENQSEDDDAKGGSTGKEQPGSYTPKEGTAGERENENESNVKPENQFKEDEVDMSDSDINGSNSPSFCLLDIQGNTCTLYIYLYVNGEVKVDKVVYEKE
Retromer^mClover (Vps26-Vps29-Vps35, carrying mClover on Vps29), sequence (P34110 whole entry, chain 3 of 3): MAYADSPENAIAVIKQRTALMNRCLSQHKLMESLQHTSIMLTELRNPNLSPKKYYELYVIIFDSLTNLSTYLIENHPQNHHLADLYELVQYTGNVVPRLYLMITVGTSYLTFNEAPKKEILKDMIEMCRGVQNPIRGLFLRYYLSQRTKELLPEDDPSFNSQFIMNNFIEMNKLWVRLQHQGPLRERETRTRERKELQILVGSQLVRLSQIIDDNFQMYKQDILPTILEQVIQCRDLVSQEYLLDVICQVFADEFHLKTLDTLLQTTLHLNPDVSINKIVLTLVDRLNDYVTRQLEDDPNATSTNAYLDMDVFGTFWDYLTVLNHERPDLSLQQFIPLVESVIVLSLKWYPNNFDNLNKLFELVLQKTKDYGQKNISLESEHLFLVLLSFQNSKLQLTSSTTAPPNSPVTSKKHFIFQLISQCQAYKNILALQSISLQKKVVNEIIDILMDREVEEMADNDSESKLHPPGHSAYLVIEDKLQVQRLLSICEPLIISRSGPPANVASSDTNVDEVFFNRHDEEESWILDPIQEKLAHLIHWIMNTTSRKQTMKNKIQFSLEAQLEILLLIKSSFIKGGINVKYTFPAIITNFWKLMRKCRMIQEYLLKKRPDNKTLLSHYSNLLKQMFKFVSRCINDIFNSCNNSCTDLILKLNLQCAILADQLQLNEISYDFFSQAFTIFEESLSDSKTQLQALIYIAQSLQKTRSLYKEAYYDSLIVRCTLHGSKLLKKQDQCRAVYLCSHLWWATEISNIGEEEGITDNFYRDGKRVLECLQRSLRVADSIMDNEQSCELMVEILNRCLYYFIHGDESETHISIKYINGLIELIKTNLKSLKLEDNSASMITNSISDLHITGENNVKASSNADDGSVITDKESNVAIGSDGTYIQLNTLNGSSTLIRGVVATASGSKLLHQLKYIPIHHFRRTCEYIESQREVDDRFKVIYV

B1: SNX-BAR (Vps5-Vps17) (complex)
chain 1: MDYEDNLEAPVWDELNHEGDKTQSLVSNSIESIGQISTNEERKDNELLETTASFADKIDLDSAPEWKDPGLSVAGNPQLEEHDNSKADDLINSLAPEQDPIADLKNSTTQFIATRESGGALFTGNANSPLVFDDTIYDANTSPNTSKSISGRRSGKPRILFDSARAQRNSKRNHSLKAKRTTASDDTIKTPFTDPLKKAEKENEFVEEPLDDRNERRENNEGKFTASVEKNILEQVDRPLYNLPQTGANISSPAEVEENSEKFGKTKIGSKVPPTEKAVAFKVEVKDPVKVGELTSIHVEYTVISESSLLELKYAQVSRRYRDFRWLYRQLQNNHWGKVIPPPPEKQSVGSFKENFIENRRFQMESMLKKICQDPVLQKDKDFLLFLTSDDFSSESKKRAFLTGSGAINDSNDLSEVRISEIQLLGAEDAAEVLKNGGIDAESHKGFMSISFSSLPKYNEADEFFIEKKQKIDELEDNLKKLSKSLEMVDTSRNTLAASTEEFSSMVETLASLNVSEPNSELLNNFADVHKSIKSSLERSSLQETLTMGVMLDDYIRSLASVKAIFNQRSKLGYFLVVIENDMNKKHSQLGKLGQNIHSEKFREMRKEFQTLERRYNLTKKQWQAVGDKIKDEFQGFSTDKIREFRNGMEISLEAAIESQKECIELWETFYQTNL
chain 2: MTSAVPYDPYDDLDNNPFAEPQEEDSEPAATTTDGSSSMSEERVGTEQTAASVQDNGTANNIQNGLGEEGNATRSKTSNEHNENQQPSQPSERVILPERSDEKKKYTLLAKVTGLERFGSATGKKENPTIIFDCSTNLPTFRKQQYKNVKKSYEEFHQLFKYLNVAIQESFVPTLPSAYTTFGINSEEDRMKVTRNFQLWFNRLSQDPLIIRNEEVAFFIESDFNTYTPINKSKSLASGLKRKTLKQLAPPYDEITELAEFRPLVKSIYVVSQSLQEKLLRVSRNRKMMVQEENAFGQDFVNLDEHNKLYRRYGKILTAVGDIDSIIATMDMATLYDGLEWIVRDAYAVKEALTNRHFIMRNLVQAQQNSKAKQEQARRFRSRRDINPMKIDEALRQLKAAAKNEQVLTLKLQRITSNMIIERKQWISWYEEWIRSSIKEFTLRKIEYERKKLTLLERVRSDIRKADENGGLSRLGRHAVSNNNSDTSQTLKGDSWTGESNRKSQIPINKIAHTEFDDELFTEDDGYNSQDSDTTSLNARHAASLLGMSTK
For the molecule B1, in assay [1], the binding result is listed as “binds”.
As to GGGGGKKIINEEINLDSLGGC([maleimide-Alexa‑547]) (reading uncertain) [Ear1^547 (fluorescent Alexa-547-labelled Ear1 peptide)], the binding result in assay [1] and in assay [2] was “binds” in each case.

The values above are taken from article doi:10.1101/2025.07.29.667382 (bioRxiv, 2025).
